According to patent US20180134769A1 (NATIONAL RESEARCH COUNCIL OF CANADA, published 2018):
Where a chain is given by its changes, count along the chain named.

B1: A5.1p (other)
VHH: QVKLEESGGGLVQAGGSLRLSCAASGRTFSMYRMGWFRQAPGKEREFVGVITRNGSSTYYADSVKGRFTISRDNAKNTVYLQMNSLKPEDTALYYCAATSGSSYLDAAHVYDYWGQGTQVTVSS
B2: A20.1p (other)
VHH: QVQLVESGGGLAQAGGSLRLSCAASGRTFSMDPMAWFRQPPGKEREFVAAGSSTGRTTYYADSVKGRFTISRDNAKNTVYLQMNSLKPEDTAVYYCAAAPYGANWYRDEYAYWGQGTQVTVSS
B3: A26.8m (VHH)
VHH: QVKLEESGGGLVQAGGSLRLSCAASERTFSRYPVAWFRQAPGAEREFVCVISSTGTSTYYADSVKGRFTCSRDNAKVTVYLQMNNLKREDTAVYFCAVNSQRTRLQDPNEYDYWGQGTQVTVSS
notes: also called mutant A26.8; disulfide mutant of A26.8
B4: A5.1m (VHH)
VHH: B1 VHH with G49C, I70C
notes: also called mutant A5.1; disulfide mutant of A5.1
B5: A20.1m (VHH)
VHH: B2 VHH with A49C, I70C
notes: also called mutant A20.1; disulfide mutant of A20.1
B6: A4.2m (VHH)
VHH: QVKLEESGGGLVQAGGSLRLSCAASGRTFNTLSMGWFRQAPGKEREFVCAVSRSGGSTYYADSVKGRFTCSRDNAKNTVYLQMNSLKPEDTAVYYCAAAATKSNTTAYRLSFDYWGQGTQVTVSS
notes: also called mutant A4.2; disulfide mutant of A4.2
B7: B5.2 (VHH)
VHH: QVQLVESGGGLVQPGGSLRLSCAASGNIFSINTMGWYRQAPGKQLELVAAITSGGTTSYTDSVEGRFTISRDNAKNAVYLQMNSLKAEDTAVYYCNTVKVVGGRLDNPDYWGQGTQVTVSS
notes: llama VHH monomer; also called anti-TcdB VHH B5.2
B8: A24.1 (VHH)
VHH: QVQLVESGGGLVQAGGSLRLSCAASIRSFSNRNMGWFRQPPGKEREFVAGISWGGGSTRYADSVKGRFTISRDNAKKTVYLQMNSLKPEDTAVYYCAAEFGHNIATSSDEYDYWGQGTQVTVSS
notes: also called anti-TcdA VHH A24.1
B9: A5.1 (VHH)
VHH: B1 VHH
notes: also called anti-TcdA VHH A5.1
B10: A19.2 (VHH)
VHH: QVKLEESGGGLVQPGGSLRLSCAASGRTLSSYIVAWFRQAPGKEREFVAGISRRGGNSAYVESVKGRFTISRDNAKNTVYLQMNSLKPEDTAVYYCAADGSVAGWGRRSVSVSSYDYWGQGTQVTVSS
notes: also called anti-TcdA VHH A19.2
B11: A20.1 (VHH)
VHH: B2 VHH
notes: also called anti-TcdA VHH A20.1
B12: A4.2 (VHH)
VHH: B6 VHH with C49A, C70I
notes: also called anti-TcdA VHH A4.2
B13: A26.8 (VHH)
VHH: B3 VHH with C49A, C70I
notes: also called anti-TcdA VHH A26.8
B14: B15.5 (VHH)
VHH: QVQLVESGGDLVQAGGSLRLSCAASGSISRISTMGWYRQAPGKQRELVATISTGGTTNYAESVKGRFTVSRDNAKNTMYLQMNSLKPEDTAVYYCAAGWKVVRGSLEYEYSGQGTQVTVSS
notes: llama VHH monomer; also called anti-TcdB VHH B15.5
B15: B13.6 (VHH)
VHH: QVKLEESGGGLVQAGGSLRLSCSASGRTFSSGVMGWFRQAPGKQRELVAAITTGGSTSYTDSVKGRFTISRDNAKNTVYLQMNSLKPEDTAVYYCNSVAVVGGVIKSPDYWGQGTQVTVSS
notes: llama VHH monomer; also called anti-TcdB VHH B13.6

molecular target: T1, Clostridium difficile toxin A (TcdA) (Clostridium difficile strain 10463, UniProt P16154 1-2710); test: not given

In order of rising “EC50 (read off the curve)” value:
1. B2  ~1 nM
2. B1  ~4 nM

molecular target: T1, Clostridium difficile toxin A (TcdA); test: not given; remark: another data set of the same source

In order of falling koff:
1. B3  0.019 s⁻¹
2. B6  0.016 s⁻¹
3. B4  0.013 s⁻¹
4. B5  0.0059 s⁻¹

molecular target: T1, Clostridium difficile toxin A (TcdA); test: ELISA, antigen coated

B7: binds.

molecular target: T2, Clostridium difficile toxin B (TcdB) (Clostridium difficile strain 10463, UniProt P18177 1-2366); test: ELISA, antigen coated
T2 construct: range 1-2366

B8: no binding.
B9: no binding.
B10: no binding.
B11: no binding.
B12: no binding.

molecular target: T3, TcdA-RBD-f1 (Clostridium difficile, UniProt P16154 2304-2710); test: ELISA, antigen coated
T3 construct: range 2304-2710

B13: binds.

molecular target: T4, TcdB-RBD-f1 (Clostridium difficile, UniProt P18177 2286-2366); test: ELISA, antigen coated
T4 construct: range 2286-2366

B8: no binding.
B13: no binding.
B9: no binding.
B10: no binding.
B11: no binding.
B12: no binding.

molecular target: T1, Clostridium difficile toxin A (TcdA); test: SPR, TcdA immobilized; same value as in Table 1

In order of falling Kd:
1. B10  290 nM
2. B8  260 nM
3. B12  24 nM
4. B9  3 nM
5. B11  2 nM

In order of falling koff:
1. B8  0.016 s⁻¹
2. B12  0.016 s⁻¹
3. B9  0.005 s⁻¹
4. B10  0.0039 s⁻¹
5. B11  0.0016 s⁻¹

In order of rising kon:
1. B10  14000 M⁻¹ s⁻¹
2. B8  60000 M⁻¹ s⁻¹
3. B12  670000 M⁻¹ s⁻¹
4. B11  820000 M⁻¹ s⁻¹
5. B9  1.6e+06 M⁻¹ s⁻¹

molecular target: T1, Clostridium difficile toxin A (TcdA); test: SPR (BIACORE 3000); 10,287 RUs of TcdA immobilized, VHH injected

In order of rising Kd:
1. B5  9.2 nM
2. B4  17 nM
3. B6  20 nM
4. B3  28 nM

In order of falling koff:
1. B3  0.028 s⁻¹
2. B6  0.019 s⁻¹
3. B4  0.016 s⁻¹
4. B5  0.0059 s⁻¹

In order of falling kon:
1. B3  1e+06 M⁻¹ s⁻¹
2. B4  950000 M⁻¹ s⁻¹
3. B6  930000 M⁻¹ s⁻¹
4. B5  640000 M⁻¹ s⁻¹

molecular target: T1, Clostridium difficile toxin A (TcdA); test: ELISA, TcdA coated at 5 ug/ml, rabbit anti-His6 IgG-HRP

In order of rising “EC50 (read off the curve)” value:
1. B11  ~1 nM
2. B9  ~7 nM

molecular target: T4, TcdB-RBD-f1; test: SPR (BIACORE 3000); VHH immobilized on CM5 chip, TcdB-RBD-f1 injected

In order of falling Kd:
1. B15  400 nM
2. B14  357 nM
3. B7  100 nM

In order of rising koff:
1. B7  0.0002 s⁻¹
2. B14  0.001 s⁻¹
3. B15  0.001 s⁻¹

In order of falling kon:
1. B14  2800 M⁻¹ s⁻¹
2. B15  2500 M⁻¹ s⁻¹
3. B7  2000 M⁻¹ s⁻¹

molecular target: T1, Clostridium difficile toxin A (TcdA); test: SPR (BIACORE 3000); TcdA immobilized on CM5 chip, monomeric VHH injected

In order of rising Kd:
1. B11  2 nM
2. B9  3 nM
3. B12  24 nM
4. B8  260 nM
5. B10  290 nM

In order of rising koff:
1. B11  0.0016 s⁻¹
2. B10  0.0039 s⁻¹
3. B9  0.005 s⁻¹
4. B8  0.016 s⁻¹
5. B12  0.016 s⁻¹

In order of falling kon:
1. B9  1.6e+06 M⁻¹ s⁻¹
2. B11  820000 M⁻¹ s⁻¹
3. B8  60000 M⁻¹ s⁻¹
4. B10  14000 M⁻¹ s⁻¹

molecular target: T1, Clostridium difficile toxin A (TcdA); test: ELISA, immobilized TcdA, serial dilution of VHH, rabbit anti-His6 IgG-HRP

For B10, the “EC50 (read off the curve)” value was ~0.04 µg/mL.
